This note sets out measurements from patent US20180371066A1 (C2N DIAGNOSTICS, published 2018).

The target in assay [1] is T1, rhesus monkey tau (rhesus monkey, UniProt P57786 2-60).
T1 construct: also called rhesus tau
T1 sequence: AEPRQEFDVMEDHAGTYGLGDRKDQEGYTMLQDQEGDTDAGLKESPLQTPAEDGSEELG
Briefly: direct ELISA on 96-well plates coated with tau at varied concentration; OD 650nm. As to the method: FIG. 10 illustrates the binding results for different anti human tau antibodies to either human or rhesus monkey tau. Murine anti human tau antibodies HJ8.5 and HJ8.7 alongside humanized variant VH1/VK2 (also referred to as C₂N-8E12) were tested. […] In order to determine whether these amino acid difference between the two species of tau, impacts the ability of antibodies HJ8.5/C₂N-8E12 to bind the following experiment was performed. Binding of C₂N-8E12, HJ8.5 (murine precursor of C₂N-8E12), and HJ8.7 (murine anti-human tau antibody that binds to an epitope of tau where the human and rhesus amino acid sequence is 100% conserved) to human and rhesus tau by coating 96 well ELISA plates with either human or rhesus tau at various concentrations was measured. […] As expected, HJ8.7 binds to both human and rhesus tau.
On the technique in general: An ELISA detects its analyte on a solid surface through an enzyme-linked reagent.

The target in assay [2] is T2, PEP_2875827.
T2 peptide: QGGYTMHQDAAGDTD
Briefly: peptide array of 15-mers of human tau probed with the antibody; label LIN.AA (double alanine).

Assay [3] deals with T3, PEP_2875819.
T3 peptide: DRKDQGGYTAAQDQE
Described as above.

Assay [4] addresses T4, PEP_2875821.
T4 peptide: RKDQGGYTMAADQEG
Described as above.

Assay [5] deals with T5, PEP_2875817.
T5 peptide: GDRKDQGGYAAHQDQ
The description is as above.

For assay [6], the target named is T6, recombinant human Tau-412 protein (human, UniProt P10636-7 1-412).
T6 construct: Analyte of the SPR study; also called human tau (1N4R, 412 amino acids)
Briefly: SPR Biacore T200, Protein A capture, mean of the VH1/VK2 runs. Here is the method: Kinetic data was obtained at a flow rate of 40 μL/min to minimize any potential mass transfer effects. Two repeats of the blank (no antigen) and the 2.5 nM concentration of the analyte were programmed into the kinetic run in order to check the stability of both the surface and analyte over the kinetic cycles. For the initial kinetic runs, 2-fold dilutions of Tau-412 from 40 nM to 0.156 nM were run. For kinetic analysis and on subsequent runs, an analyte range of 20 nM to 0.625 nM was selected. This range covered multiple analyte concentrations both above and below the reported KD.
The association phase was monitored for 500 seconds to allow some of the higher concentrations of analyte to reach steady state. In order to observe a sufficient signal decrease (>10%) during the dissociation phase of the kinetic cycle, dissociation was measured for 1200 seconds. As discussed in Section 5, the Fcs were allowed to stabilize for 600 seconds after each regeneration step. The signal from the reference channel Fc1 was subtracted from that of Fc2, Fc3 and Fc4.
The kinetic parameters for the interaction of Tau-412 with the 7 mAbs as measured using the Protein A capture system on the Biacore T200 are shown in Table F-2. To correct for differences in the capture level of the antibody between each binding cycle, a local Rₘₐₓ parameter was used in the 1-to-1 binding model. Kinetic analysis was performed in three independent runs using fresh preparations of Tau-412 and antibody. Run 1 and runs 2+3 used different vials of the antigen Tau-412; therefore the reported errors associated with the mean response probably represent variation in preparation of the analyte and differences in assay set-up and run. From run 1 to runs 2+3, the amount of antibody injected was adjusted to try to get closer to the target 300 RU capture levels.
(In general: In SPR one partner is held on a chip, and binding of the other changes the refractive index at the surface.)

For assay [7], the target named is T7, human tau (human, UniProt P10636 2-60).
T7 construct: also called soluble human tau; human tau protein
Nature of the assay: competition ELISA on plate-coated human tau against biotinylated HJ8.5; IC50 normalised to chimeric HJ8.5; column C2N Run 1.

Assay [8] addresses T8, PEP_2875826.
T8 peptide: QGGYTMHQDQEGDTD
Briefly: peptide array of 15-mers of human tau probed with the antibody; label LIN.

The target of assay [9] is T9, PEP_2875818.
T9 peptide: DRKDQGGYTMHQDQE
The description is as above.

Assay [10] has as its target T10, PEP_2875824.
T10 peptide: DQGGYTMHQDQEGDT
The description is as above.

Assay [11] deals with T11, PEP_2875808.
T11 peptide: TYGLGDRKDQGGYTM
The assay is described as above.

Assay [12] has as its target T12, PEP_2875822.
T12 peptide: KDQGGYTMHQDQEGD
The description is as above.

Assay [13] concerns the target T13, PEP_2875820.
T13 peptide: RKDQGGYTMHQDQEG
The assay is described as above.

In assay [14] the target is T14, PEP_2875816.
T14 peptide: GDRKDQGGYTMHQDQ
The description is as above.

Assay [15] has as its target T15, PEP_2875806.
T15 peptide: GTYGLGDRKDQGGYT
The assay is described as above.

Assay [16] deals with T16, PEP_2875804.
T16 peptide: AGTYGLGDRKDQGGY
The assay is described as above.

The target of assay [17] is T17, PEP_2875814.
T17 peptide: LGDRKDQGGYTMHQD
The description is as above.

For assay [18], the target named is T18, PEP_2875810.
T18 peptide: YGLGDRKDQGGYTMH
The description is as above.

In assay [19] the target is T19, PEP_2875812.
T19 peptide: GLGDRKDQGGYTMHQ
The description is as above.

For assay [20], the target named is T7, human tau. Briefly: competition ELISA on plate-coated human tau against biotinylated HJ8.5; IC50 normalised to chimeric HJ8.5; column C2N Run 2.

T6 sequence (P10636 other isoform, or with tags, fused parts or gaps limits assumed): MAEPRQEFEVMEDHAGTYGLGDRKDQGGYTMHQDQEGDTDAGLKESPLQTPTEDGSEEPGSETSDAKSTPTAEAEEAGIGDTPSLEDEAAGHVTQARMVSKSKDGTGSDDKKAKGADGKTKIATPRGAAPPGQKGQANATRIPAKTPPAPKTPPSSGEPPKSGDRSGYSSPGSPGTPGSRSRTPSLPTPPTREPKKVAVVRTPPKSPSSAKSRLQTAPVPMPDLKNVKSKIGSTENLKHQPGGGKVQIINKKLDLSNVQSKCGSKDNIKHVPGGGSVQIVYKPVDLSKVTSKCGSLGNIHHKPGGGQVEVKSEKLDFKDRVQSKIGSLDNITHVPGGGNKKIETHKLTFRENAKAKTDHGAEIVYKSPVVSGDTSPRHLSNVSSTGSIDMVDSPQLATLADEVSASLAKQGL
T7 sequence (P10636 2-60 limits assumed): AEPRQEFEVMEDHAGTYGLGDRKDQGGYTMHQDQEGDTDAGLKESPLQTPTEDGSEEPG

B1: VH1/VK2 humanized anti-tau antibody (C2N-8E12) (antibody, human IgG4 S228P, kappa, V domains shown)
VH: EVKVVESGGGLVQPGGSMKLSCVVSGFTFSNYWVNWVRQAPGKGLEWVAQIRLKSDNYATHYEESVKGRFTISRDDSKSSVYLQMNNLRAEDSGIYYCTNWEDYWGQGTTVTVSS
VL: DIVLTQSPDSLAVSLGERATISCRASQSVSTSRYSYIHWYQQKPGQPPKLLIKYASNLESGVPSRFSGSGSGTDFTLNIHPLEPEDFATYYCHHSWEIPLTFGQGTKLEIKR
notes: Humanized recombinant IgG4 with S241P hinge mutation, human kappa light chain; also called C2N-8EI2
One may read the Kd as the constant that tells how readily two partners part at equilibrium. Usually koff stands for a measure of how fast the partners let go of each other. One may read the kon as a measure of how fast the partners come together. For B1, the binding result in assay [1] is “no binding”. In addition, the “Binding Signal” value in assay [2] worked out at 636; in assay [3] it was 2580; in assay [4], 2790; in [5], 661; in assay [8], 789; in [9], 2790. For the same molecule, the “Binding Signal” value in [10] was 2650; in assay [11], 2590; in assay [12], 2680; in [13], 2780; in [14], 2700; in [15], 1710. Also, the “Binding Signal” value in [16] stood at 1290; in assay [17] it was 2750; in assay [18] it was 2670; in assay [19], 2730. In [6], the Kd worked out at 2.06 nM. For the same molecule, the koff in assay [6] is 0.000621 s⁻¹. The kon in assay [6] was 302000 M⁻¹ s⁻¹. Besides, the “IC50 (Relative to Chimera)” value in assay [7] is 1.34 relative to Chimera; in [20], 0.91 relative to Chimera.
